Assay results reported in US20040063188A1.

Biological target: recombinant HPV-16 L1 VLPs (baculovirus-derived, from Sf-9S insect cells) (human papillomavirus type 16) (UniProt P03101)
Experiment: ELISA; 1000 ng VLPs mixed with infected-cell supernatants; reference is the same pair with VLPs in buffer or in sucrose (FIG. 11)

UniProt P03101, sequence (P03101 whole entry): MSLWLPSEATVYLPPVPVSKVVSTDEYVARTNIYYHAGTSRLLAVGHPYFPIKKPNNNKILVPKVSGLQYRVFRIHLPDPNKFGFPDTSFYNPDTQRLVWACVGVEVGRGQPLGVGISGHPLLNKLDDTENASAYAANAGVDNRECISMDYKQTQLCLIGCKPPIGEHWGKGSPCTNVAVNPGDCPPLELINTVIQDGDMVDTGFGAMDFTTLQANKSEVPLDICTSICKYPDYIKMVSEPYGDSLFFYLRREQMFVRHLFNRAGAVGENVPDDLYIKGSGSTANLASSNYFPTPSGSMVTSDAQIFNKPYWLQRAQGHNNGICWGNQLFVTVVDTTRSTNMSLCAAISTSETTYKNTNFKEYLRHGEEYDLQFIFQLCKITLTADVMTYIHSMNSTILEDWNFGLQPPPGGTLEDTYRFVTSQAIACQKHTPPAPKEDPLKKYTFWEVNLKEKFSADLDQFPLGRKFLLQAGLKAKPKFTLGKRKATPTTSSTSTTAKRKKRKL

Substance: H16.V5 murine monoclonal antibody
- fold decrease in binding activity: 5 fold
